From patent US20210332123A1 (SUZHOU KANOVA BIOPHARMACEUTICAL, published 2021)

How the values were obtained:
human IL-25 = target: T1, human IL-25 (human, UniProt Q9H293 33-177); test: SPR, Biacore T200; antibody captured by anti-human Fc, IL-25 as analyte
T1 construct: ELISA used bought R&D systems #1258-IL-025/CF; Treated as one molecule; also called IL-17E; human IL-17E
T1 sequence (looked up): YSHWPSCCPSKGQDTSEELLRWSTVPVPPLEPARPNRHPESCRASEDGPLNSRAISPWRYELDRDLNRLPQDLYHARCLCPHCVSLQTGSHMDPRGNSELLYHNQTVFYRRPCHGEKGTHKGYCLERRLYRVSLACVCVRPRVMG
Method: Anti-human Fc gamma specific antibody (Jackson Immuno Research, Lot no. 124448, Code. 109-008-098) was immobilized onto the Biacore T200 sensor chip using amine coupling method. Four antibodies secreted to the culture medium plus the parental antibody were injected and captured by anti-human Fc antibody via Fc (capture phase) individually. After equilibration, IL-25 was injected for 300 seconds (association phase) followed by the injection of running buffer for 1200 s (dissociation phase). Responses of reference flow cell (flow cell 1) were subtracted from those of humanized antibodies flow cells during each cycle. The surface was regenerated before the injection of another humanized antibody. The process was repeated until all antibodies are analyzed. The off-rates of humanized antibodies were obtained from fitting the experimental data locally to 1:1 interaction model using the Biacore T200 evaluation software. The antibodies were ranked by their dissociation rate constants (off-rates, Kd). The binders that interact with IL-25 with similar affinity to parental antibody were selected (Table 1).

human IL-17F = target: T2, human IL-17F (human, UniProt Q96PD4 31-163); test: ELISA, plate coated with 2 µg/ml cytokine
T2 sequence (looked up): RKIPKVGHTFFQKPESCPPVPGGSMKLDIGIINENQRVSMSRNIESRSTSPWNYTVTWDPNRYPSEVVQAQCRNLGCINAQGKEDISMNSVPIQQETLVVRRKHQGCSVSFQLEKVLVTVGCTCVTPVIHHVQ
Method: (§1) MaxiSorp 96-well plates (NUNC #449824, www.thermofisher.com) were coated with 2 μg/ml human IL-17A (Cell Signaling #89285F, www.cellsignal.com), human IL-17F (Cell Signaling #8906LC, www.cellsignal.com), human IL-17B (Peprotech #200-28, www.peprotech.com), human IL-17C (R&D systems #1234-IL-025/CF, www.rndsystems.com), human IL-17D ((Peprotech #200-27, www.peprotech.com), human IL-17E (R&D systems #1258-IL-025/CF, www.rndsystems.com) in 1×PBS (50 μl/well) respectively. Plates were incubated at 4° C. overnight. Coating solution was removed and plates were washed once with 200 μl/well PBST (1×PBS with 0.05% tween-20). Then 200 μl/well blocking buffer (1×PBS with 0.05% tween-20, 3% BSA) was added and incubated at room temperature for 1 hour. Blocking buffer was removed and plates were washed three times with 200 μl/well PBST (1×PBS with 0.05% tween-20). The anti-IL-25 antibodies (produced in Example 2), were diluted to 10, 3.33, 1.11, 0.37, 0.123, 0.041, 0.0137, 0.0046, 0.0015, 0.00031, 0.000102, 0.000034 μg/ml by 1×PBS and added to the plates (50 μl/well). Plates were incubated at room temperature for 2 hours. Antibodies in the wells were removed and plates were washed three times with 200 μl/well PBST (1×PBS with 0.05% tween-20) each time. Goat anti-human IgG(H&L)-HRP secondary antibody (Jackson Immuno Research #109-035-088, www.jacksonimmuno.com) was diluted 1:5000 in 1×PBS and added to each well (50 μl/well). Plates were incubated at room temperature for 1 hour. Secondary antibody was removed and plates were washed seven times with 200 μl/well PBST (1×PBS with 0.05% tween-20) each time. 50 μl/well TMB (eBioscience #85-00-4201-56, www.ebioscience.com) was added and plates were incubated at room temperature for several minutes. Then 50 μl/well 2N H₂SO₄ was added to stop the reaction. Plates were read at 450 nm.

human IL-17A = target: T3, human IL-17A (human, UniProt Q16552 24-155, limits assumed); test: ELISA, plate coated with 2 µg/ml cytokine
T3 sequence (looked up): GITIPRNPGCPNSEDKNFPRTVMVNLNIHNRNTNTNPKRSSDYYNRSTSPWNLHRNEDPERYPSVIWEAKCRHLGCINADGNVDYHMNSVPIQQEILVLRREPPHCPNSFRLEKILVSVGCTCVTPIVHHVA
Method: as §1

human IL-17B = target: T4, human IL-17B (human, UniProt Q9UHF5 21-180); test: ELISA, plate coated with 2 µg/ml cytokine
T4 sequence (looked up): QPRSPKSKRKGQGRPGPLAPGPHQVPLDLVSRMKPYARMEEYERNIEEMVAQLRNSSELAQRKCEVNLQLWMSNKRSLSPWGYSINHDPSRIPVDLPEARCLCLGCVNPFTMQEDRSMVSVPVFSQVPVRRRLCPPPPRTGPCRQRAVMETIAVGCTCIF
Method: as §1

human IL-17C = target: T5, human IL-17C (human, UniProt Q9P0M4 19-197); test: ELISA, plate coated with 2 µg/ml cytokine
T5 sequence (looked up): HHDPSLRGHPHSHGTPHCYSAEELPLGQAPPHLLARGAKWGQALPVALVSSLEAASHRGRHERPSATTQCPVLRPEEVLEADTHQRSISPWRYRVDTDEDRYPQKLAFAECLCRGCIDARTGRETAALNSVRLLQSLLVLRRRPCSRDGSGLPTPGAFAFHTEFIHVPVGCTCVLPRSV
Method: as §1

mouse IL-25 = target: T6, mouse IL-25 (mouse, UniProt Q8VHH8 17-169, limits assumed); test: ELISA, plate coated with mouse IL-25, OD450, Example 7; unit from the axis lg(nM) [panel Mouse IL-25]
T6 construct: In-house production
T6 sequence (looked up): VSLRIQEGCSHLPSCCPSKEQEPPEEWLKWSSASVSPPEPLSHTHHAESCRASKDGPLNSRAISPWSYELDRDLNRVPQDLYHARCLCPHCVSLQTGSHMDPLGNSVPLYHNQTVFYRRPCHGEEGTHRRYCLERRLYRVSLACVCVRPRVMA

cynomolgus IL-25 = target: T7, cynomolgus IL-25 (cynomolgus, UniProt G7P9V9 33-176); test: ELISA, plate coated with cynomolgus IL-25 (cynoIL25-his), OD450, Example 7 [panel cynoIL25-his]
T7 construct: In-house production
T7 sequence: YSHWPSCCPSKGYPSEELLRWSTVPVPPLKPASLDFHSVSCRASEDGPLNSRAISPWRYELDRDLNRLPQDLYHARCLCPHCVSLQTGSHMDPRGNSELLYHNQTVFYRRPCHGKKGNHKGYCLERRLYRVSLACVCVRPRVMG

Kd (human IL-25)	koff (human IL-25)	kon (human IL-25)	binding result (human IL-17F)	binding result (human IL-17A)	binding result (human IL-17B)	binding result (human IL-17C)	EC50 (mouse IL-25)	EC50 (cynomolgus IL-25)	Binder
0.271 nM	0.000259 s⁻¹	957000 M⁻¹ s⁻¹	no binding (tested: 10 µg/ml)	no binding (tested: 10 µg/ml)	no binding (tested: 10 µg/ml)	no binding (tested: 10 µg/ml)	0.153 nM	1.51 nM	VH1-1 + VL2-1 (humanized anti-IL-25 antibody formed by VH1-1 and VL2-1) (antibody, V domains shown) VH: QVTLKESGPTLVKPTQTLTLTCTFSGFSLSTSGMGLGWIRQPPGKALEWLAHIWWDDVKHYKPALKSRLTITKDTSKNQVVLTMTNVDPVDTATYYCARMGQLHYYGYDYAMDYWGQGTLVTVSS VL: DIQLTQSPSFLSASVGDRVTITCSASSSVSYMYWYQQKPGKAPKPLIYRTSNLASGVPSRFSGSGSGTEYTLTISSMQPEDFATYYCQLYHSYPPTWTFGQGTKLEIK
0.267 nM	0.000284 s⁻¹	1.06e+06 M⁻¹ s⁻¹	no binding (tested: 10 µg/ml)	no binding (tested: 10 µg/ml)	no binding (tested: 10 µg/ml)	no binding (tested: 10 µg/ml)	0.242 nM		VH1-1 + VL1-2 (humanized anti-IL-25 antibody formed by VH1-1 and VL1-2) (antibody, V domains shown, Captured by anti-human Fc gamma antibody in SPR) VH: QVTLKESGPTLVKPTQTLTLTCTFSGFSLSTSGMGLGWIRQPPGKALEWLAHIWWDDVKHYKPALKSRLTITKDTSKNQVVLTMTNVDPVDTATYYCARMGQLHYYGYDYAMDYWGQGTLVTVSS VL: EIVLTQSPATLSASPGERVTISCSASSSVSYMYWYQQKPGQAPRPLIYRTSNLASGVPARFSGSGSGTDYTLTISSMEPEDFATYYCQLYHSYPPTWTFGQGTKLEIK
0.302 nM	0.000353 s⁻¹	1.17e+06 M⁻¹ s⁻¹	no binding (tested: 10 µg/ml)	no binding (tested: 10 µg/ml)	no binding (tested: 10 µg/ml)	no binding (tested: 10 µg/ml)	0.244 nM		VH2-1 + VL2-1 (humanized anti-IL-25 antibody formed by VH2-1 and VL2-1) (antibody, V domains shown) VH: QVTLRESGPALLKPTQTLTLTCTFSGFSLSTSGMGLGWIRQPPGKALEWLAHIWWDDVKHYKPALKSRLTISKDTSKNQVVLTITNVDPVDTATYYCARMGQLHYYGYDYAMDYWGQGTLVTVSS VL: DIQLTQSPSFLSASVGDRVTITCSASSSVSYMYWYQQKPGKAPKPLIYRTSNLASGVPSRFSGSGSGTEYTLTISSMQPEDFATYYCQLYHSYPPTWTFGQGTKLEIK
0.275 nM	0.000327 s⁻¹	1.19e+06 M⁻¹ s⁻¹	no binding (tested: 10 µg/ml)	no binding (tested: 10 µg/ml)	no binding (tested: 10 µg/ml)	no binding (tested: 10 µg/ml)	0.231 nM	1.12 nM	VH2-1 + VL1-2 (humanized anti-IL-25 antibody formed by VH2-1 and VL1-2) (antibody, V domains shown) VH: QVTLRESGPALLKPTQTLTLTCTFSGFSLSTSGMGLGWIRQPPGKALEWLAHIWWDDVKHYKPALKSRLTISKDTSKNQVVLTITNVDPVDTATYYCARMGQLHYYGYDYAMDYWGQGTLVTVSS VL: EIVLTQSPATLSASPGERVTISCSASSSVSYMYWYQQKPGQAPRPLIYRTSNLASGVPARFSGSGSGTDYTLTISSMEPEDFATYYCQLYHSYPPTWTFGQGTKLEIK
0.34 nM	0.000267 s⁻¹	785000 M⁻¹ s⁻¹					0.329 nM	2.35 nM	murine anti-IL-25 monoclonal antibody 18H3 (antibody, V domains shown, also called parental antibody; parental murine mAb) VH: QVTLKESGPGILQPSQTLSLTCSFSGFSLSTSGMGLGWIRQPSGKGLEWLAHIWWDDVKHYKPALKSRLTISKDISSSQVFLTIASVDTADTATYYCARMGQLHYYGYDYAMDYWGQGTSVTVSS VL: QIVLTQSPAIMSASPGEKVTISCSASSSVSYMYWYQQKPGSSPKPWIYRTSNLASGVPARFSGSGSGTSYSLTISSMEAEDAATYYCQLYHSYPPTWTFGGGTKLEIK
